Assay results reported in article PMC7204071, “The model cyanobacteria Anabaena sp. PCC 7120 possess an intact but partially degenerated gene cluster encoding gas vesicles” (BMC Microbiology, 2020).

Substrate: Nc1ncnc2c1ncn2[C@@H]1O[C@H](COP(=O)(O)OP(=O)(O)OP(=O)(O)O)[C@@H](O)[C@H]1O
Test: ATP/NADH coupled assay (pyruvate kinase / lactate dehydrogenase), A340, Hanes-Woolf plot
Format: biochemical, Nostoc sp. PCC 7120 = FACHB-418
Conditions: 50 mM Tris-HCl pH 8.0, 20 mM KCl, 5 mM MgCl2, 25 °C, 50 μg GvpN in assay, methods state NADH (40 to 200 μM), not ATP, was varied

B1: GvpN (Nostoc sp. PCC 7120 = FACHB-418) (protein)
chain: MTLTANNKKRAVLRVRPGQFVVTPAIEQVAIRALRYLTSGFAIHLRGPAGTGKTTLAMHLANCLDRPIMLIFGDDEFKSSDLIGSESGYTHKKLLDNYIHSVLKVEDEFKQNWVDSRLTLACREGFTLVYDEFNRSRPEVNNVLLSALEEKILTLPPSSNQPEYLHVNPQFRAIFTSNPEEYCGVHSTQDALMDRLVTINMPEPDELTQTEILAQKTALNRADALLIVRLVKAFRSRTGGEKTSGLRSCLMIAKVCAEHNILVSPQSSDFREICADVLFNRTNWSASEAATIFLELLNHLDLQQIEEFKNSIIPEDTDAIAEGGFPTIIDSHFGTLDSEVLEQPGVEDSIPFEQEIYLYLQQYKSAALALVQQEFELSRTVATNALNSLEQKGLVSKNNHVYTIEEPNQS
notes: recombinant, C-terminal 6xHis tag (modified pET-29a, same manner as GvpF), E. coli BL21(DE3), Ni-NTA and Superdex 200; N-terminal AAA domain
- Km: 3.9 ± 1.5 µM
- kcat: 35 ± 2 s⁻¹
